Experimental findings from article PMC6160236, “Disrupted structure and aberrant function of CHIP mediates the loss of motor and cognitive function in preclinical models of SCAR16” (PLoS Genetics, 2018) are described below.

As usually defined, the stoichiometry N is the number of molecules, sites or subunits per partner or assembly.

Series [1] has as its target T1, CHIP (carboxyl terminus of heat shock 70-interacting protein), recombinant His-tagged wild type (human), Q9UNE7.
T1 chain: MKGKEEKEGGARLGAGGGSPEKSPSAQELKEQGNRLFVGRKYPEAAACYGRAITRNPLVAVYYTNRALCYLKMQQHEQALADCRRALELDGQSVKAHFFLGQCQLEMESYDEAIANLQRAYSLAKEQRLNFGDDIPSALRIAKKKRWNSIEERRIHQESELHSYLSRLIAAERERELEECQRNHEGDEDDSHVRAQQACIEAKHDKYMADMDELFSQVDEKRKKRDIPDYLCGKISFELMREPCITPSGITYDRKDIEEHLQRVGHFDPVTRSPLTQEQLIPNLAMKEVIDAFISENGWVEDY
In words: SEC-MALS; GE Superdex 200 column with Wyatt DAWN HELEOS-II and T-Rex refractometer; 100 μl of 0.5 mg/ml of each sample loaded; oligomeric species of each CHIP protein. The following applies: remark: other sources report otherwise. For orientation: SEC sorts molecules by how far they enter the pores of the column.

Series [2] addresses T2, CHIP-K30A, recombinant His-tagged (human), Q9UNE7.
T2 chain: T1 chain with K30A
Described as above. Particulars: remark: other sources report otherwise.

Series [3] concerns the molecule itself. The series is described as above.
The target in series [4] is T3, myc-CHIP wild type (pcDNA3-mycCHIP) (human), Q9UNE7.
T3 chain: T1 chain
In words: native gel or EMSA; blue native PAGE (4-16% NativePAGE) of fresh lysates of transfected COS-7 cells, immunoblot with anti-myc. Particulars: remark: other sources report otherwise.

Series [5] addresses T4, myc-CHIP-K30A (pcDNA3-mycCHIP-K30A) (human), Q9UNE7.
T4 chain: T1 chain with K30A
The series is described as above. The following applies: remark: other sources report otherwise.

Residue numbers refer to the chain shown, from its start. In names and notes the source's numbering stands.

B1: CHIP (carboxyl terminus of heat shock 70-interacting protein), recombinant His-tagged wild type, Q9UNE7 1-303 (enzyme)
chain: T1 chain
Take B1: in series [1], the percent of the protein as 2mer was determined as 69.7%, the percent of the protein as 4mer was 25.2%, the percent of the protein as 6mer was 4.8% and the stoichiometry N amounted to 2.

B2: CHIP-K30A, recombinant His-tagged, Q9UNE7 1-303 (enzyme)
chain: T1 chain with K30A
On to B2, for which, in series [2], the percent of the protein as 2mer came to 80.4%, the percent of the protein as 4mer came out at 16.4%, the percent of the protein as 6mer was determined as 2.6% and the stoichiometry N turned out to be 2.

B3: CHIP-T246M, recombinant His-tagged (enzyme, human, UniProt Q9UNE7 1-303, looked up)
chain: T1 chain with T246M
notes: CHIP (gene STUB1), full-length protein with the SCAR16 patient mutation p.T246M in the U-box; T246M is a mutation found in SCAR16 patients; source: Escherichia coli BL21(DE3), purified (HisTrap HP)
With B3, the “stoichiometry N” value in series [3] lay within 10 to 12.

B4: myc-CHIP wild type (pcDNA3-mycCHIP), Q9UNE7 1-303 (enzyme)
chain: T1 chain
As for B4, in series [4], the stoichiometry N amounted to 2.

B5: myc-CHIP-K30A (pcDNA3-mycCHIP-K30A), Q9UNE7 1-303 (enzyme)
chain: T1 chain with K30A
In turn, B5 returned a stoichiometry N in series [5] of 2.
